Source: US10508147B2, “Anti-nodal antibodies and methods of using same” (ANN AND ROBERT H. LURIE CHILDREN'S HOSPITAL OF CHICAGO, priority 2014, dated 2019)
Entries after “also recorded” stand apart in the source; their conditions may differ.

Assays:
[1] = biological target: T1, rhNodal/rhCripto-1 complex (Homo sapiens, UniProt Q96S42); assay: SPR competition assay: rhNodal pre-incubated with 3D1 injected over Cripto-1-derivatized chip; format: binding
T1 construct: E. coli derived His238 Leu347, with an N-terminal Met; purchased R&D Systems
T1 sequence (Q96S42 238-347): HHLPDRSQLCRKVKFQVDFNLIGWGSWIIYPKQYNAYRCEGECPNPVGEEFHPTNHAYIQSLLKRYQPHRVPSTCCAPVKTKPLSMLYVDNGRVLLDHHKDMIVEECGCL
Procedure: Next, experiments were conducted to assess the ability of 3D1 antibodies to inhibit binding between Nodal and Cripto-1 through SPR experiments. Experiments were performed on CM5 sensor chips with immobilized Cripto-1.
The antibody at 1:1 molar ratio prevents the binding of hNodal to hCripto-1-1 by about 70%. Accordingly, the invention provides that, in one embodiment, 3D1 can be used to prevent binding between Cripto-1 and Nodal (e.g., for therapeutic uses described herein (e.g., to inhibit and/or neutralize Cripto-1-mediated Nodal signaling)).
Competition assays. Competition assays were performed using Biacore sensor chips derivatized with rhCripto-1-1. The binding between immobilized rhCripto-1-1 and rhNodal was assessed by injecting solutions of the Nodal protein at increasing concentrations. rhNodal was incubated at 5 nM with 3D1 mAb at concentrations matching 1:0.5, 1:1 and 1:2 molar ratios (protein:mAb).
SPR analyses were performed at 25° C. using HBS as running buffer. Protein immobilization was carried out following the canonical amine coupling chemistry using the surface immobilization wizard procedure, operating at 5 μL/min. […] Dissociations were monitored for at least 3 additional minutes. […]

C8161 melanoma cells = assay: Western blot analysis of C8161 melanoma cells treated with anti-Nodal antibody; format: cell-based, human; conditions: for phosphorylation of Smad2 and MAPK (ERK1/2): 1 hr to 72 hr
Procedure: Experiments were conducted in order to assess and characterize the ability of the 3D1 antibody to inhibit Nodal activity. 3D1 reduced Nodal expression, clonogenicity, and vasculogenic mimicry in metastatic melanoma cells (See FIG. 24). C8161 melanoma cells treated with an IgG-Control (negative control) or 4 μg/ml of either Santa Cruz (SC) (used as positive control) or 3D1 function blocking anti-Nodal antibodies for 72 hours.
Additional studies were performed in order to determine if 3D1 antibody could alter phosphorylation of Smad2 or MAPK. […] Western blot analysis of C8161 melanoma cells treated with 3D1 (4 μg/ml) vs. untreated control for 1 hr, 2 hr, 4 hr, 6 hr or 72 hr (See FIG. 25).
(§1) To determine the level of Nodal expression in brain, kidney, liver, pancreas, heart and skeletal muscle ready to use adult tissue extracts for Western blotting (WB) were purchased from Santa Cruz Biotechnology. For WB experiments of cell lines, whole cell lysates were prepared and quantified. SDS-PAGE gel electrophoresis and WB were performed using standard techniques. PVDF membranes were blocked in 5% non-fat milk or 5% BSA and antibodies diluted in either 5% non-fat milk or 5% bovine serum albumin overnight at 4° C., depending on the manufacturer's recommendations. Signal was detected using West Pico chemiluminescence reagent (Thermo Fisher) and exposure to x-ray film.

C8161 cells = assay: Vasculogenic mimicry / vasculogenic network formation assay in 3D culture; format: cell-based, human; conditions: 24 hours, vs IgG control
Procedure: Untreated cells, or cells treated with either IgG Control or 3D1 anti-Nodal antibody for 72 hours were cultured in soft agar for three weeks (soft agar clonogenic assay). […] C8161 cells were treated with either 4 μg/ml of either Santa Cruz (SC), or 3D1 function blocking anti-Nodal antibodies, or IgG Control and cultured in three dimensional cultures for 24 hours to measure their ability to engage in vasculogenic mimicry (VM).
Three-dimensional matrices were prepared by spreading 75 μl of ice-cold Matrigel (average 12-15 mg/ml; Corning, Bedford, Mass.) into 12-well culture dishes and polymerized for one hour at 37° C. C8161 human melanoma cells (1×10^5 cells/well) were then plated onto the prepared Matrigel matrices in the presence of either 4 μg/ml mouse IgG control or 3D1 mAb (2.8 μg/ml). No additional antibody was added. Tubular network formation was then observed after 24 hr and images captured digitally using a Zeiss model 25 inverted microscope (Carl Zeiss, Inc, Thornwood, N.Y.) and Hitachi HV-C20 CCD camera (Hitachi Denshi Ltd., Woodbury, N.Y.). Mean values were calculated from images of at least four different fields of both the IgG control and 3D1 mAb treated cultures, and then analyzed using the AngioSys software package (TCS CellWorks, Ltd., Buckingham, UK) with the mean number (±SEM) of junctions and tubules calculated from the analyzed fields.

[2] = test system: MDA-MB-231 breast cancer cells; assay: Western blot analysis of MDA-MB-231 breast cancer cells treated with 3D1; format: cell-based, human; conditions: 72 hrs
Procedure: as §1

B1: 3D1: mouse monoclonal anti-Nodal antibody raised against hNodal(44-67); light chain SEQ ID NO:1, heavy chains SEQ ID NO:2 and 3 (protein)
light: DIKMTQSPASLSASVGETVTITCRASGNIHNYLAWYQQKQGKSPQLLVYNAKTLADGVPSRFSGSGSGTQYSLKINSLQPEDFGSYYCQHFWSTPHVRCWDQAGTETEAW
heavy 1: VKLVESGGGLVKPGGSLKLSCAASGFTFSSYAMSWVRQTPEKRLEWVASISSGGCTYYPDSVKGRFTISRDNARNILYLQMSSLRSEDTAMYYCARGSMITADGNSLLLCYGLLGSRNLXHR
heavy 2: VKLVESGGGLVQPGGSMKLSCVASGFTFRNYWMSWVRQSPEKGLEWVAEIRLKSDNYAARYAESVKGKFTISRDDSKSRLYLQMNSLRAEDTGIYYCTGIRRFAYWGQGTL
modifications: not fully specified; (120)..(120) Xaa can be any naturally occurring amino acid
With B1 the “inhibition of the binding of Nodal to Cripto-1” value ([1]; 3D1 mAb at 5 nM (1:1 molar ratio), rhNodal 5 nM) was “approximately 70%”, the “prevention of binding of hNodal to hCripto-1” value ([1]; antibody at 1:1 molar ratio, 5 nM Nodal) was “about 70%” and the “inhibition of Nodal protein expression” value (C8161 melanoma cells; 4 μg/ml, 72 hours, Western blot vs IgG control) was 50%. The “phosphorylation of Smad2 and MAPK (ERK1/2)” value (C8161 melanoma cells; 4 μg/ml) was “reduced phosphorylation of Smad2 and MAPK”, the “phosphorylation of Smad2 and MAPK (ERK1/2)” value (C8161 melanoma cells; 4 μg/ml, listed as 3D1 mAb) was “reduction in phosphorylation; also recorded: reduced” and the p27 level (C8161 melanoma cells; 72 hr) was “increases”. The “phospho-Histone H3 (P-H3) level” value (C8161 melanoma cells; 72 hr) was “increases”, the Nodal expression (C8161 melanoma cells; 72 hr, 4 μg/ml, vs IgG control, listed as 3D1 mAb) was “reduction in Nodal expression” and the “Cyclin B1 level” value (C8161 melanoma cells; 72 hr, listed as 3D1 mAb) was “reduced; also recorded: reduction”. The p27 level (C8161 melanoma cells; 72 hr, listed as 3D1 mAb) was “increase”, the “phospho-Histone H3 (P-H3) level” value (C8161 melanoma cells; 72 hr, listed as 3D1 mAb) was “reduction” and the “formation of vasculogenic mimicry networks (junctions and tubules)” value (C8161 cells) was “did not complete the formation of networks”. For the same molecule, the “formation of vasculogenic mimicry networks (junctions and tubules)” value (C8161 cells; listed as 3D1 mAb) was “unable to form complete networks characteristic of VM; also recorded: significant reduction in the ability to form junctions and tubules”, the “Nodal expression and P-H3 by WB” value [2] was “noteworthy reduction” and the “reduction in Nodal” value ([2]; 4 μg/ml, vs IgG control) was 45%. For the same molecule, the “reduction in the level of the proliferation/mitosis marker P-H3” value ([2]; 4 μg/ml, vs IgG control) was 49%.
